This is an account of results in patent US20130331333A1 (HADASIT MEDICAL RESEARCH SERVICES AND DEVELOPMENT, published 2013).

The chains are these.
T1: Etk/Bmx (epithelial tyrosine kinase), wild type (UniProt P51813 1-675)
T1 construct: Plasmids after Tsai et al. 2000; also called wt-Etk
T1 sequence (looked up): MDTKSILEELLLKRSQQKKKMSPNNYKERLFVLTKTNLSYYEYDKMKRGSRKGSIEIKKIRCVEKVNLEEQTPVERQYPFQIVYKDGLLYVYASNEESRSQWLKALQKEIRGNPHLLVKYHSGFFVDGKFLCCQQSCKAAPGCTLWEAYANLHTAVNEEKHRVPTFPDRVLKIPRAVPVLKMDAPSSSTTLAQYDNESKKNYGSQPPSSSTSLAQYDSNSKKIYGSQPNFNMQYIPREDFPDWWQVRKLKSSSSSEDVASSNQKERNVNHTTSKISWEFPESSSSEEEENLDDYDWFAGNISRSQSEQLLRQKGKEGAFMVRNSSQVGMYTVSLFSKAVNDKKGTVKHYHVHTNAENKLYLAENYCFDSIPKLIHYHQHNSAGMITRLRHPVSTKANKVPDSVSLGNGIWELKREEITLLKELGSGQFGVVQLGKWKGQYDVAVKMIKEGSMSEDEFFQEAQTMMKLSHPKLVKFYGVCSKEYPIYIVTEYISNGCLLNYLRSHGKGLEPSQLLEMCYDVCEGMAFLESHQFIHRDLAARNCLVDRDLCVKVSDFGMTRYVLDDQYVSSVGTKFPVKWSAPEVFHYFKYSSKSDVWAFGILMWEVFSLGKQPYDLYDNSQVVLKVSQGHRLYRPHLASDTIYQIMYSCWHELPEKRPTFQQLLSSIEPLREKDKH

T2: Shc adaptor protein (66, 52 and 46 kDa isoforms) (human, UniProt P29353 1-583, limits assumed)
T2 construct: Full-length endogenous protein in cell lysates; three isoforms detected together; also called Shc adapter protein
T2 sequence (looked up): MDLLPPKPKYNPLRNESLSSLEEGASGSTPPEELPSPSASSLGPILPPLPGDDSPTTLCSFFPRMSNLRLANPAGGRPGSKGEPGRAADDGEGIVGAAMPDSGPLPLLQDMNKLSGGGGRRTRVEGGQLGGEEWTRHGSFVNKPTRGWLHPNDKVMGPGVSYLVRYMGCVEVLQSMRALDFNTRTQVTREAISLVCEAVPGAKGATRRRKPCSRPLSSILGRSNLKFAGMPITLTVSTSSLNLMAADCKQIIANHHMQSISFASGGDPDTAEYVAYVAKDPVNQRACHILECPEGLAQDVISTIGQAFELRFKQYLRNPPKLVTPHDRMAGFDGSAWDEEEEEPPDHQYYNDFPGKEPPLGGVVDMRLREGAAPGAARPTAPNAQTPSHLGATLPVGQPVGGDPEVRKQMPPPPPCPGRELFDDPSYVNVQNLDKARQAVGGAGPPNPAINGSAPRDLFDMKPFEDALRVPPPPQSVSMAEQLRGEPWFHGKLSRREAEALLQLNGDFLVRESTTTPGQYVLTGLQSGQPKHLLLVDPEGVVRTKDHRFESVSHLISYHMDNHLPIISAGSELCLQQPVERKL

T3: T7-tagged Etk/Bmx (UniProt P51813 1-675)
T3 construct: not shown: T7 tag
T3 sequence (looked up): T1 sequence (looked up)

B1: wild-type human protease-activated receptor 1 (wt hPar1) (receptor, UniProt P25116 42-425, looked up)
chain: SFLLRNPNDKYEPFWEDEEKNESGLTEYRLVSINKSSPLQKQLPAFISEDASGYLTSSWLTLFVPSVYTGVFVVSLPLNIMAIVVFILKMKVKKPAVVYMLHLATADVLFVSVLPFKISYYFSGSDWQFGSELCRFVTAAFYCNMYASILLMTVISIDRFLAVVYPMQSLSWRTLGRASFTCLAIWALAIAGVVPLLLKEQTIQVPGLNITTCHDVLNETLLEGYYAYYFSAFSAVFFFVPLIISTVCYVSIIRCLSSSAVANRSKKSRALFLSAAVFCIFIICFGPTNVLLIAHYSFLSHTSTTEAAYFAYLLCVCVSSISCCIDPLIYYYASSECQRYVYSILCCKESSDPSSYNSSGQLMASKMDTCSSNLNNSIYKKLLT
notes: whole, on cells; Tested as protein in cell lysates (pull-down, co-immunoprecipitation, antibody array)
B2: Y383A hPar1 (receptor, human, UniProt P25116 42-425, looked up)
chain: B1 chain with Y342A
notes: whole, on cells
B3: Y381A & Y383A hPar1 double mutant (receptor, human, UniProt P25116 42-425, looked up)
chain: B1 chain with Y340A, Y342A
notes: whole, on cells; also called Y381A&383A hPar1
B4: Y381A hPar1 (receptor, human, UniProt P25116 42-425, looked up)
chain: B1 chain with Y340A
notes: whole, on cells; also called hPar1-Y381A
B5: HA-tagged wt hPar1 (receptor, human, UniProt P25116 42-425, looked up)
chain: B1 chain
notes: whole, on cells; Tested in lysates of transfected cells; also called HA-wt hPar1; HA-wthPar1; not shown: HA tag added downstream of the ATG start codon
B6: GST-PAR2 C-tail wt (other, human, UniProt P55085 348-397, looked up)
chain: SHDFRDHAKNALLCRSVRTVKQMQVSLTSKKHSRKSSSYSSSSTTVKTSY
notes: domain: PAR2 C-tail; not shown: GST tag
B7: GST-PH-Etk/Bmx (other, UniProt P51813 1-111, looked up)
chain: MDTKSILEELLLKRSQQKKKMSPNNYKERLFVLTKTNLSYYEYDKMKRGSRKGSIEIKKIRCVEKVNLEEQTPVERQYPFQIVYKDGLLYVYASNEESRSQWLKALQKEIR
notes: domain: PH domain; Made as in Chen et al. 2001; also called GST-Etk-PH; GST-Etk/Bmx; not shown: GST tag

The target of assay [1] is T1, Etk/Bmx (epithelial tyrosine kinase), …. Briefly: antibody array with MDA-MB-435 lysates before and after PAR1 activation, biotinylated anti-PAR1 detection. On the procedure: (§1) Antibody array: A custom-made antibody array (hypromatrix) containing thirty antibodies against various proteins was prepared (FIG. 1). The antibodies were immobilized on a membrane, each at a pre-determined position, while retaining their capabilities of recognizing and capturing antigens as well as antigen-associated proteins. MDA-MB-435 cells were activated for 10 min with thrombin (1 U/ml). Untreated or activated cells were lysed with Triton extraction solution: 15 mM Tris, pH 7.5, 120 mM NaCl, 25 mM KCl, 2 mM EGTA, 2 mM EDTA, 0.1 mM DTT, 0.5% Triton X-100, […] and 0.5 mM PMSF. Protein extract was incubated on pre-blocked membrane for 2 h at room temperature. The antibody array was washed with TBST and incubated with biotinylated PAR₁ antibody (ATAP) for 2 h at room temperature. The antibody array was washed again with TBST, and the membrane was incubated with HRP-conjugated streptavidin for 1 h. Protein-protein interactions were detected by ECL and exposure to X-ray film.
(§2) To detect the putative mediator(s) linking PAR1 to potential signaling proteins, custom-made antibody-array membranes were examined. Aggressive breast carcinoma MDA-MB-435 cells (with high hPar1 levels) were incubated with the antibody-array membranes before and after PAR₁ activation (15 minutes). […]

For the next assay, the target named is c-Yes (UniProt P07947 2-543). The description is as above. On the procedure: as §1, §2
Chain of c-Yes (P07947 2-543 limits assumed): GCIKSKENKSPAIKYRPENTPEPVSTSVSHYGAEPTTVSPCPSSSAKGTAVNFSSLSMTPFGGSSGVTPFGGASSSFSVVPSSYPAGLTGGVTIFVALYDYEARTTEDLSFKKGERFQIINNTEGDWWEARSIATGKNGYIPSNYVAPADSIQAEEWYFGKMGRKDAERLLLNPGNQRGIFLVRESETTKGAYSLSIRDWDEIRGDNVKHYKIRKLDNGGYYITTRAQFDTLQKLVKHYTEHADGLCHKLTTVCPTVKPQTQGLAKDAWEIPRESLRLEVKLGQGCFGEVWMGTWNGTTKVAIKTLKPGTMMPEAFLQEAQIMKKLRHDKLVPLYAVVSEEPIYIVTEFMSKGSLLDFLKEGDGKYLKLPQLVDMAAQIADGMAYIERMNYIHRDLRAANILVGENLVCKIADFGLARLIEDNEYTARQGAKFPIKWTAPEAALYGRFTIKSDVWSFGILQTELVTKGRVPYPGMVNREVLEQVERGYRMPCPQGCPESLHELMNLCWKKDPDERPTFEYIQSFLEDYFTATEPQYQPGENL
For assay [2], the target named is T2, Shc adaptor protein (66, 52 and 46 kDa …). Briefly: association of Shc with PAR1 Y/A mutants (method not detailed).
For the next assay, the target named is T3, T7-tagged Etk/Bmx. Briefly: anti-HA immunoprecipitation, anti-T7 blot.
For assay [3], the target named is T1, Etk/Bmx (epithelial tyrosine kinase), …. Kind of assay: Etk/Bmx expressing cell lysates on GST-PAR2 C-tails.
For assay [4], the target named is B1. Briefly: cell lysates on GST-Etk-PH column, anti-PAR1 blot. The method, then: The IP was performed using anti-PAR1 (ATAP, Santa Cruz, Calif.). FIGS. 7B and 7C are photographs of gels showing peptide competition for PAR1 binding to GST-PH-Etk/Bmx.
GST fusion protein columns. Fusion proteins were purified from transformed Escherichia coli bacteria that had been stimulated with isopropyl-β-D-thio-galactopyranoside (IPTG) at a concentration of […]. Bacteria were lysed according to published procedures, and then immobilized on glutathione Sepharose beads (Pharmacia). Briefly, MDA-MB-435 cell lysates were applied to GST-PAR1C-tail or GST control columns. After 2 h binding periods to the designated protein/s cell lysates to the columns, a washing step was performed. The washes (×3) were carried out using a “wash buffer” including: 100 mM NaCL, 20 mM EDTA, 10 mM Tris, pH 8.0 and 1% Triton ×100. This step was performed in order to wash out all non-specific proteins, leaving the GST-PAR₁-C-tail column firmly bound to targeted cell lysate proteins. Next, elution of bound proteins was performed via the addition of gel “sample buffer” and appropriate boiling. The samples were run electrophoretically on SDS-PAGE gels, followed by immunoblotting with the indicated antibodies and ECL detection. GST-PH-Etk/Bmx. The PH domain in Etk/Bmx was bound to GST column as previously described (Chen R, et al. (2001) Nat Cell Biol. 3: 439-444). […]

Numbering of substitutions follows the chain as printed. Names and notes keep the numbering of the source.

B1: the binding result (in assay [1]; with c-Yes) was “binds” throughout.

Regarding B2, in assay [2], the binding result is recorded as “binds”. For B3, the binding result in assay [2] is recorded as “binds”. With B4, the binding result in assay [2] was “binds”. For the molecule B5, the binding result with T7-tagged Etk/Bmx was “binds”. In the case of B6, in assay [3], the binding result was “binds”. As for B7, the binding result in assay [4] is “binds”.
